We go through 67 substances from patent publication US10640547B2, “Immunotherapy against melanoma and other cancers” (IMMATICS BIOTECHNOLOGIES GMBH, priority 2016, dated 2020).

For the assay, the target named is HLA-A*02:01 (Homo sapiens, UniProt P04439, D140Y/D185E/D98H/E176V/E277Q/G131W/G231S/I119V/I121R/I166T/I218V/L300P/L318F/N151K/N90K/P208A/P217A/Q86G/Q94H/R138H/R169H/T345S). Description: MHC binding assay (UV-ligand exchange, β2m ELISA). The settings on record: MHC class I binding score; binding to HLA-A*02:01 ranged by peptide exchange yield (UV-ligand exchange, β2m ELISA). The text has this: Candidate peptides for T cell based therapies according to the present invention were further tested for their MHC binding capacity (affinity). The individual peptide-MHC complexes were produced by UV-ligand exchange, where a UV-sensitive peptide is cleaved upon UV-irradiation, and exchanged with the peptide of interest as analyzed. Only peptide candidates that can effectively bind and stabilize the peptide-receptive MHC molecules prevent dissociation of the MHC complexes. To determine the yield of the exchange reaction, an ELISA was performed based on the detection of the light chain (β2m) of stabilized MHC complexes. The assay was performed as generally described in Rodenko et al. (Rodenko et al., 2006).
96 well MAXISorp plates (NUNC) were coated over night with 2 ug/ml streptavidin in PBS at room temperature, washed 4× and blocked for 1 h at 37° C. in 2% BSA containing blocking buffer. Refolded HLA-A*02:01/MLA-001 monomers served as standards, covering the range of 15-500 ng/ml. Peptide-MHC monomers of the UV-exchange reaction were diluted 100 fold in blocking buffer. Samples were incubated for 1 h at 37° C., washed four times, incubated with 2 ug/ml HRP conjugated anti-β2m for 1 h at 37° C., washed again and detected with TMB solution that is stopped with […]. Absorption was measured at 450 nm. Candidate peptides that show a high exchange yield (preferably higher than 50%, most preferred higher than 75%) are generally preferred for a generation and production of antibodies or fragments thereof, and/or T cell receptors or fragments thereof, as they show sufficient avidity to the MHC molecules and prevent dissociation of the MHC complexes.

“1 (FLDVKELML; listed as Homo sapiens) [compound 1]”: the Peptide exchange entry is on record as “++++ (>75% = ++++)”.

As for “2 (VLLGENVEL; listed as Homo sapiens) [compound 2]”, the Peptide exchange entry is given as “+++ (>50 = +++)”.

On to “5 (ILDEGHILQL; listed as Homo sapiens) [compound 5]”, for which the Peptide exchange entry is on record as “++++ (>75% = ++++)”.

On to “6 (SIPDTIASV; listed as Homo sapiens) [compound 6]”, for which the Peptide exchange entry is on record as “+++ (>50 = +++)”.

For “7 (NLQEKVPEL; listed as Homo sapiens) [compound 7]”, the Peptide exchange result was “+++ (>50 = +++)”.

On to “19 (VLAVLGAVVAV; listed as Homo sapiens) [compound 19]”, for which the Peptide exchange result is given as “+++ (>50 = +++)”.

For the substance “22 (KLLELQELVL; listed as Homo sapiens) [compound 22]”, the Peptide exchange entry is recorded as “++++ (>75% = ++++)”.

In the case of “23 (FLGDPPPGL; listed as Homo sapiens) [compound 23]”, the Peptide exchange entry was “+++ (>50 = +++)”.

Consider “24 (SLVAILHLL; listed as Homo sapiens) [compound 24]”, for which the Peptide exchange result is listed as “+++ (>50 = +++)”.

For the substance “25 (FIDPEQIQV; listed as Homo sapiens) [compound 25]”, the Peptide exchange entry was “+++ (>50 = +++)”.

For the substance “26 (KIEDLIKYL; listed as Homo sapiens) [compound 26]”, the Peptide exchange result is “+++ (>50 = +++)”.

As for “27 (TLWYVPLSL; listed as Homo sapiens) [compound 27]”, the Peptide exchange entry is on record as “++++ (>75% = ++++)”.

For the substance “28 (IVDNTTMQL; listed as Homo sapiens) [compound 28]”, the Peptide exchange entry is given as “+++ (>50 = +++)”.

Take “29 (ILDDVAMVL; listed as Homo sapiens) [compound 29]”: the Peptide exchange entry is “+++ (>50 = +++)”.

For the substance “30 (VLFPMDLAL; listed as Homo sapiens) [compound 30]”, the Peptide exchange result was “+++ (>50 = +++)”.

Take “32 (GLDIITNKV; listed as Homo sapiens) [compound 32]”: the Peptide exchange result is on record as “+++ (>50 = +++)”.

For “35 (ALFAAGANV; listed as Homo sapiens) [compound 35]”, the Peptide exchange entry was “+++ (>50 = +++)”.

Regarding “36 (SVNGFISTL; listed as Homo sapiens) [compound 36]”, the Peptide exchange entry was “++ (>20% = ++)”.

With “37 (TLKEYLESL; listed as Homo sapiens) [compound 37]”, the Peptide exchange result is recorded as “+++ (>50 = +++)”.

Consider “38 (KLGFGTGVNVYL; listed as Homo sapiens) [compound 38]”, for which the Peptide exchange entry is on record as “++++ (>75% = ++++)”.

Consider “39 (ALPPPPASI; listed as Homo sapiens) [compound 39]”, for which the Peptide exchange result is recorded as “+++ (>50 = +++)”.

“40 (LLSNTVSTL; listed as Homo sapiens) [compound 40]”: the Peptide exchange result is given as “+++ (>50 = +++)”.

As to “41 (LLDDPTNAHFI; listed as Homo sapiens) [compound 41]”, the Peptide exchange result is on record as “+++ (>50 = +++)”.

With “42 (VLKADVVLL; listed as Homo sapiens) [compound 42]”, the Peptide exchange result is reported as “++ (>20% = ++)”.

Consider “43 (LLPDPLYSL; listed as Homo sapiens) [compound 43]”, for which the Peptide exchange result was “++ (>20% = ++)”.

Consider “44 (FLYTYIAKV; listed as Homo sapiens) [compound 44]”, for which the Peptide exchange result is on record as “+++ (>50 = +++)”.

For “45 (FVYGEPREL; listed as Homo sapiens) [compound 45]”, the Peptide exchange result is reported as “+++ (>50 = +++)”.

For “46 (VMSSTLYTV; listed as Homo sapiens) [compound 46]”, the Peptide exchange entry was “++++ (>75% = ++++)”.

On to “47 (ALDSDPVGL; listed as Homo sapiens) [compound 47]”, for which the Peptide exchange result is “+++ (>50 = +++)”.

For “48 (HLIGWTAFL; listed as Homo sapiens) [compound 48]”, the Peptide exchange entry is given as “++++ (>75% = ++++)”.

As for “49 (ALLSQDFEL; listed as Homo sapiens) [compound 49]”, the Peptide exchange result is “++++ (>75% = ++++)”.

Regarding “50 (HLDQIFQNL; listed as Homo sapiens) [compound 50]”, the Peptide exchange result is recorded as “++ (>20% = ++)”.

“51 (LIDKIIEYL; listed as Homo sapiens) [compound 51]”: the Peptide exchange entry is “++ (>20% = ++)”.

For “52 (NLDYAILKL; listed as Homo sapiens) [compound 52]”, the Peptide exchange entry is “+ (>10% = +)”.

With “53 (ILDEEKFNV; listed as Homo sapiens) [compound 53]”, the Peptide exchange result was “+++ (>50 = +++)”.

“54 (LLDSGAFHL; listed as Homo sapiens) [compound 54]”: the Peptide exchange entry is reported as “+++ (>50 = +++)”.

“55 (NLDKLYHGL; listed as Homo sapiens) [compound 55]”: the Peptide exchange entry is recorded as “+ (>10% = +)”.

For the substance “56 (ILDELVKSL; listed as Homo sapiens) [compound 56]”, the Peptide exchange result was “+++ (>50 = +++)”.

With “57 (GILSFLPVL; listed as Homo sapiens) [compound 57]”, the Peptide exchange entry is on record as “+++ (>50 = +++)”.

In the case of “58 (ILGDWSIQV; listed as Homo sapiens) [compound 58]”, the Peptide exchange entry is “++++ (>75% = ++++)”.

Take “59 (IIDDVMKEL; listed as Homo sapiens) [compound 59]”: the Peptide exchange result was “++ (>20% = ++)”.

On to “60 (ILPEAQDYFL; listed as Homo sapiens) [compound 60]”, for which the Peptide exchange result was “++++ (>75% = ++++)”.

With “61 (KLSVHVTAL; listed as Homo sapiens) [compound 61]”, the Peptide exchange result is “++++ (>75% = ++++)”.

Take “62 (LLDTTQKYL; listed as Homo sapiens) [compound 62]”: the Peptide exchange result is listed as “++++ (>75% = ++++)”.

With “63 (SIDDSDPIV; listed as Homo sapiens) [compound 63]”, the Peptide exchange result was “+ (>10% = +)”.

As for “64 (SLGPIMLTKI; listed as Homo sapiens) [compound 64]”, the Peptide exchange result was “++ (>20% = ++)”.

On to “65 (TTLGGFAKV; listed as Homo sapiens) [compound 65]”, for which the Peptide exchange result is listed as “++ (>20% = ++)”.

In the case of “66 (VMFEYGMRL; listed as Homo sapiens) [compound 66]”, the Peptide exchange entry is reported as “++++ (>75% = ++++)”.

As for “67 (YVDSEGIVRM; listed as Homo sapiens) [compound 67]”, the Peptide exchange result is “+ (>10% = +)”.

On to “68 (FLAEAARSL; listed as Homo sapiens) [compound 68]”, for which the Peptide exchange entry was “++++ (>75% = ++++)”.

On to “69 (IIDDKPIGL; listed as Homo sapiens) [compound 69]”, for which the Peptide exchange entry is “+++ (>50 = +++)”.

Consider “70 (LIDEAAQML; listed as Homo sapiens) [compound 70]”, for which the Peptide exchange entry is “+++ (>50 = +++)”.

On to “71 (SLDEVAVSL; listed as Homo sapiens) [compound 71]”, for which the Peptide exchange entry is on record as “++++ (>75% = ++++)”.

“72 (TLLEVDAIVNA; listed as Homo sapiens) [compound 72]”: the Peptide exchange entry is listed as “++++ (>75% = ++++)”.

Take “73 (ELDKIYETL; listed as Homo sapiens) [compound 73]”: the Peptide exchange entry was “+ (>10% = +)”.

Regarding “74 (GTIPLIESL; listed as Homo sapiens) [compound 74]”, the Peptide exchange entry is recorded as “+ (>10% = +)”.

As for “75 (FMYAGQLTL; listed as Homo sapiens) [compound 75]”, the Peptide exchange result was “++++ (>75% = ++++)”.

As for “76 (QIDSIHLLL; listed as Homo sapiens) [compound 76]”, the Peptide exchange entry was “+++ (>50 = +++)”.

For “77 (SIDDVVKKL; listed as Homo sapiens) [compound 77]”, the Peptide exchange entry is “++ (>20% = ++)”.

“78 (ALKDLVNLI; listed as Homo sapiens) [compound 78]”: the Peptide exchange entry is reported as “++++ (>75% = ++++)”.

Regarding “79 (AVDNILLKL; listed as Homo sapiens) [compound 79]”, the Peptide exchange result is “+++ (>50 = +++)”.

As for “80 (FADELSHLL; listed as Homo sapiens) [compound 80]”, the Peptide exchange result is “+++ (>50 = +++)”.

For the substance “81 (FLDDGNQML; listed as Homo sapiens) [compound 81]”, the Peptide exchange entry is “+++ (>50 = +++)”.

Regarding “82 (GIDDLHISL; listed as Homo sapiens) [compound 82]”, the Peptide exchange result is “+++ (>50 = +++)”.

Take “83 (GLDKVITVL; listed as Homo sapiens) [compound 83]”: the Peptide exchange entry is recorded as “+++ (>50 = +++)”.

“84 (GLDTILQNL; listed as Homo sapiens) [compound 84]”: the Peptide exchange result is on record as “++++ (>75% = ++++)”.

For the substance “85 (GLLDVMYQV; listed as Homo sapiens) [compound 85]”, the Peptide exchange entry is “++++ (>75% = ++++)”.
